The values that follow are results of earlier work, collected in PMC4394549.

The series has as its target Arginyl-tRNA synthetase (Methanothermobacter thermautotrophicus) (UniProt O27496).
Sequence of UniProt O27496 (O27496 whole entry): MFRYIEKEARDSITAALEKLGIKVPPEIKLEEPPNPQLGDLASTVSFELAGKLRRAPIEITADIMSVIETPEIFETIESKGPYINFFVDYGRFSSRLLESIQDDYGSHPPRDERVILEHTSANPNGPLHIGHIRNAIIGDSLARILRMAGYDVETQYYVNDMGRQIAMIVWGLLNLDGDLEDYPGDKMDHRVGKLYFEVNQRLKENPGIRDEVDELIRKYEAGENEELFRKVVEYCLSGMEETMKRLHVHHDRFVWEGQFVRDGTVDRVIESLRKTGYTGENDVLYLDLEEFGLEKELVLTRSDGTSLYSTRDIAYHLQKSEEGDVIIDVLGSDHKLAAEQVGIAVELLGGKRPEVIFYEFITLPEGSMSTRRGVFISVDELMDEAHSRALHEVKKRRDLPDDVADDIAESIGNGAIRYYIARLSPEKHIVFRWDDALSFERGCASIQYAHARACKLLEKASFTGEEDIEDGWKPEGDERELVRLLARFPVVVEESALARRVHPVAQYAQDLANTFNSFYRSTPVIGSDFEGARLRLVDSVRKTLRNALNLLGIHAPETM

Turning to “Seryl-tRNA synthetase (from UniProt O27194)”, the Kd was 250 nM.
